Measured values published in the supplement of paper PMC7125110.
± gives the standard error. For some assays here: This sample holds only a part of the variants without activity.

B1: glmS ribozyme (parent)
chain: AUAAAAGCGCCAGAACUACAGAAAUGUAGUUGACGAGGAGGAGGUUUAUCGAAUUUUCGGCGGAUGCCUCCAAA

Tests used:
Details in all cases: with glucosamine-6-phosphate
glucosamine-6-phosphate [1] = variants of: B1; assay: kcat; higher = faster cleavage; RNA array
Summary of the method: (§1)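 Barcoded glmS ribozyme variants on sequenced MiSeq chips were transcribed in situ by E. coli RNA polymerase and tracked through a hybridised Cy3 probe at 37 °C. Glucosamine-6-phosphate (40 μM to 10 mM) in HEPES/KCl/Mg(OAc)2 buffer was flowed in, and tiles were imaged over ~14 h. Signals were normalised to baseline and to non-cleaving reference variants; per-tile medians were fit to one- or two-exponential decays to give kobs. kcat and KM came from weighted Michaelis–Menten fits across concentrations.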

glucosamine-6-phosphate [2] = variants of: B1; assay: KM; higher = weaker cofactor use; RNA array
Summary of the method: as §1

glucosamine-6-phosphate [3] = variants of: B1; assay: self-cleavage kobs at 40 uM GlcN6P; higher = faster cleavage; RNA array
Summary of the method: as §1

glucosamine-6-phosphate [4] = variants of: B1; assay: self-cleavage kobs at 640 uM GlcN6P; higher = faster cleavage; RNA array
Summary of the method: as §1

glucosamine-6-phosphate [5] = variants of: B1; assay: self-cleavage kobs at 160 uM GlcN6P; higher = faster cleavage; RNA array
Summary of the method: as §1

glucosamine-6-phosphate [6] = variants of: B1; assay: self-cleavage kobs at 2500 uM GlcN6P; higher = faster cleavage; RNA array
Summary of the method: as §1

glucosamine-6-phosphate [7] = variants of: B1; assay: self-cleavage kobs at 10000 uM GlcN6P; higher = faster cleavage; RNA array
Summary of the method: as §1

Row | Variant | kcat (glucosamine-6-phosphate [1]) [s⁻¹] | KM (glucosamine-6-phosphate [2]) [µM] | self-cleavage kobs at 40 uM GlcN6P (glucosamine-6-phosphate [3]) [s⁻¹] | self-cleavage kobs at 640 uM GlcN6P (glucosamine-6-phosphate [4]) [s⁻¹] | self-cleavage kobs at 160 uM GlcN6P (glucosamine-6-phosphate [5]) [s⁻¹] | self-cleavage kobs at 2500 uM GlcN6P (glucosamine-6-phosphate [6]) [s⁻¹] | self-cleavage kobs at 10000 uM GlcN6P (glucosamine-6-phosphate [7]) [s⁻¹]
1 | C16A U65C | 2.42e-05 ± 3.7e-08 | 654 ± 8.5 | – | – | – | – | –
2 | G37U C70U C71U | 1.13e-05 ± 3.2e-06 | – | – | – | – | – | –
3 | U49C C71A | < 1e-05 | – | < 1e-05 | < 1e-05 | – | – | –
4 | C50G G59C | 4e-05 ± 1.5e-05 | – | – | – | 6.56e-05 ± 3.2e-05 | 5.58e-05 ± 2.3e-05 | –
5 | C50U C58A | < 1e-05 | – | – | – | – | < 1e-05 | < 1e-05
6 | A48C C68U | 8.75e-05 ± 8.5e-06 | 1310 ± 540 | < 1e-05 | – | – | 6.35e-05 ± 1.3e-05 | 7.54e-05 ± 1.1e-05
7 | U46A C68A | 1.9e-05 ± 7.6e-06 | – | < 1e-05 | – | – | – | –
8 | U31C C71G | 0.000382 ± 8.8e-05 | 1970 ± 890 | – | 9.1e-05 ± 1.5e-05 | – | 0.000213 ± 3.5e-05 | 0.000321 ± 4.9e-05
9 | U69A C71A | 2.44e-05 ± 5.9e-06 | – | – | – | – | – | –
10 | A52C C67U | 1.21e-05 ± 4.7e-06 | – | – | – | – | – | –
11 | G43A C67G | 0.00156 ± 0.00014 | 2110 ± 290 | 2.87e-05 ± 6.8e-06 | 0.000321 ± 5.4e-05 | 0.000114 ± 1.3e-05 | 0.000994 ± 0.00015 | 0.00126 ± 0.00013
12 | G9C G37C | 1.88e-05 ± 8.6e-06 | – | – | – | – | – | < 1e-05
13 | A42G G43A | 0.000155 ± 2.1e-05 | 1440 ± 500 | < 1e-05 | 5.32e-05 ± 1.5e-05 | – | 8.7e-05 ± 2.3e-05 | 0.000143 ± 2.8e-05
14 | C10U U55A | 1.86e-05 ± 2.2e-06 | – | – | – | – | – | 1.77e-05 ± 7.8e-06
15 | A6G C68U | 0.000115 ± 2.9e-06 | 728 ± 79 | – | 5.56e-05 ± 1.1e-05 | – | 8.68e-05 ± 1.5e-05 | 0.000107 ± 1e-05
16 | G43A U56G | 4.8e-05 ± 2.6e-07 | 3400 ± 58 | – | – | – | – | 3.58e-05 ± 9e-06
17 | A6U U55C | 0.000167 ± 2.1e-06 | 1250 ± 45 | – | 5.6e-05 ± 1.6e-05 | – | 0.000112 ± 1.5e-05 | 0.000148 ± 2.5e-05
18 | A36G U45A | 3.07e-05 ± 8.9e-06 | – | – | – | – | – | –
19 | U47A C70A | 0.000263 ± 6.7e-05 | 858 ± 410 | – | 0.000122 ± 1.9e-05 | 3.52e-05 ± 1.2e-05 | 0.000186 ± 3.4e-05 | –
20 | U31A A39C | 0.00192 ± 0.00067 | 2120 ± 1000 | 5.43e-05 ± 7.8e-06 | 0.000525 ± 4.9e-05 | 0.000105 ± 1.4e-05 | 0.000973 ± 0.00011 | 0.00166 ± 0.0003
21 | A48G C70U | 0.000237 ± 3.3e-05 | 1840 ± 620 | – | 5.39e-05 ± 1.1e-05 | – | 0.000179 ± 2.8e-05 | 0.000192 ± 2.1e-05
